Experimental data taken from patent US20210324080A1 (JIANGSU HUAIYU PHARMACEUTICAL, published 2021).
Numbering of substitutions follows the chain as printed.

Assays:
[1] = target: T1, recombinant His-labeled hCTLA-4 ECD protein (human, UniProt P16410 36-161); assay: SPR Biacore T200, antibody captured by anti-human Fc, 1:1 model
T1 construct: extracellular domain; also called human CTLA-4 ECD; not shown: His label
T1 sequence (looked up): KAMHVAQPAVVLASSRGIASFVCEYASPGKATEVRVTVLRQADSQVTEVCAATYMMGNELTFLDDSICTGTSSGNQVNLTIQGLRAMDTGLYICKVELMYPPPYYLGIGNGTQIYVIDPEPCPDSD
Protocol: Anti-human Fc IgG was fixed on flow cell 1 and 2. HBS-EP+ (10 mmol/L HEPES, 150 mmol/L NaCl, 3 mM EDTA, 0.05% P20, pH 7.4) was used as the running buffer, and anti-human Fc IgG was fixed using the fixing wizard template. The flow cells 1 and 2 connected in series with S CM5 sensor chip were activated with freshly mixed 50 mmol/L NHS and 200 mmol/L EDC. Anti-human Fc IgG was diluted to […] with 10 mmol/L NaAC (pH 4.5) and injected into activated flow cells 1 and 2. The remaining active coupling sites were blocked with 1 mol/L ethanolamine.
The recombinant His-labeled hCTLA-4 ECD protein was diluted to 50 nmol/L, and then serially diluted 4 times with HBS-EP+ buffer at a 2-fold ratio. […] Each antibody was injected into the CM5 sensor flow cell 2 at a flow rate of 10 μL/min to achieve a response of 230 RU. Then the prepared His-labeled hCTLA-4ECD protein was injected into flow cells 1 and 2 at a flow rate of 30 μL/min for 180 seconds. The buffer flow was maintained for 400 seconds for dissociation measurement (30 μL/min). To remove the tested antibody from the surface, 10 mmol/L glycine-HCl pH1.5 was injected for 20 seconds (30 μL/min). Flow cell 1 was used as a reference flow cell. The above steps were repeated for each concentration of serially diluted His-labeled CTLA-4ECD protein. The KD value of each antibody was evaluated using Biacore T200 evaluation software 1.0, and a 1:1 binding model was used to fit the data.

[2] = target: T2, human CTLA-4 (Y201V), full length, on transfected cells (human, UniProt P16410 36-223); assay: FACS, human CTLA-4 expressing cells
T2 construct: whole, on cells; also called hCTLA-4; HEK293-hCTLA-4 (Y201V)
T2 sequence (looked up): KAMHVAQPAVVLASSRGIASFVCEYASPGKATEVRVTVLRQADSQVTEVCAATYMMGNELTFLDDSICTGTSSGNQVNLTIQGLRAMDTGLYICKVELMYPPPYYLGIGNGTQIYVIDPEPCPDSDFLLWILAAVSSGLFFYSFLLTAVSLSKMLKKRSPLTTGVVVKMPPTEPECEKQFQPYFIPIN

[3] = target: T3, CTLA-4-hFc (immunogen A; hFc-labeled CTLA-4 extracellular domain protein) (human, UniProt P16410 36-161); assay: receptor-ligand blocking assay: CTLA-4 protein, antibody titrated, blocked ligand B7.1, inhibition (%)
T3 construct: range 36-161; Made in HEK293 cells, purified on protein A; also called CLTA-4-hFc; CTLA-4 protein; not shown: human IgG Fc fragment (hFc) of the pCpC vector
T3 sequence (looked up): T1 sequence (looked up)
Protocol: CTLA-4 extracellular domain protein (CTLA-4-hFc) was diluted with PBS to a final concentration of 1.0 μg/mL, and then added to a 96-well ELISA plate as 100 μl per well. The plate was covered with a plastic film and incubated overnight at 4° C. The plate was washed twice with plate washing solution [PBS containing 0.01% (v/v) Tween 20] on the next day, and added with blocking solution [PBS containing 0.01% (v/v) Tween 20 and 1% (w/w) BSA] and blocked at room temperature for 2 hours. […] After 2 hours, the plate was washed 3 times with a plate washing solution [PBS containing 0.01% (v/v) Tween 20]. HRP (horseradish peroxidase) labeled avidin diluent (purchased from Sigma) was added 100 microliters per well, and after the plate was incubated for 2 hours at 37° C., it was washed with plate washing solution [PBS containing 0.01% (v/v) Tween 20] for 3 times. […] TMB substrate was added to each well. After incubated at room temperature for 30 minutes, the plate was added with […] stop solution (1.0N HCl) to each well. An ELISA plate reader (SpectraMax 384plus, Molecular Device) was used to read the A450 nm value.

[4] = target: T4, monkey CTLA-4, full length, on transfected HEK293 cells (monkey); assay: FACS, monkey CTLA-4 expressing cells
T4 construct: whole, on cells; also called cCTLA-4; HEK293-cCTLA-4
From the text: The pIRES plasmid with the monkey-derived CTLA-4 full-length gene was transfected into the HEK293 cell line to construct a HEK293 stable cell line containing monkey CTLA-4 (herein referred to as HEK293-cCTLA-4 stable cell line), wherein the database accession number of the monkey CTLA-4 nucleotide sequence is XM_005574014.1. The HEK293-hCTLA-4 stable cell line and HEK293-cCTLA-4 stable cell line were expanded in a T-75 cell culture flask to a 90% confluence. The medium was aspirated, and the cells were washed with HBSS buffer (Hanks Balanced Salt Solution, purchased from Invitrogen) twice, then treated with an enzyme-free cell dissociation fluid (Versene solution, purchased from Life technology) and the cells were collected. The cells were washed with HBSS buffer twice. After counted, the cells were diluted with HBSS buffer to 2×10⁶ cells per ml, added with 1% goat serum blocking solution, wherein the percentage was the mass percantage. Cells were incubated on ice for 30 minutes, then washed twice with HBSS buffer by centrifugation. The collected cells were suspended in the FACS buffer (HBSS containing 1% BSA, wherein the percentage was the mass percantage) to 2×10⁶ cells/ml, added as 100 microliters per well to a 96-well FACS reaction plate, added with 100 microliters per well of the purified CTLA-4 antibody sample to be tested, incubated on ice for 2 hours. The plate was washed twice with the FACS buffer by centrifugation, added with 100 microliters of fluorescent (Alexa 488)-labeled secondary antibodies (purchased from Invitrogen) per well, and incubated on ice for 1 hour. The plate was washed 3 times with FACS buffer by centrifugation, added with 100 μl fixative solution [4% (v/v) Paraformaldehyde] per well to suspend the cells. 10 minutes later, it was washed 2 times with FACS buffer by centrifugation. The cells were suspended with 100 microliters of FACS buffer, FACS (FACS Calibur, purchased from BD) was used for detection and the results were analyzed.

B1: 40C4C6 fully human CTLA-4 antibody (human IgG1, kappa) (antibody, V domains shown)
VH: QVQLVESGGGVVQPGRSLRLSCAASGFTFSSYGMHWVRQAPGKGLEWVAVIWYDGRNKYYADSVKGRFTISRDNSKNTLYLQMNSLRAEDTAVYYCARASGSYSYYFDYWGQGTLVTVSS
VL: DIQMTQSPSSLSASVGGRVTITCRASQSISSFLNWYQHELGKAPKLLIYGASSLQSGVPSRFSGSGSGTDFTLTISSLQPEDFATYYCQQTYSTPFTFGPGTKVDIK
notes: also called mAb09; mAb009
Kd [1]: 2.36 nM | koff [1]: 0.0017 s⁻¹ | kon [1]: 720000 M⁻¹ s⁻¹ | MFI at 0.000128 nM [2]: 3 | MFI at 0.0128 nM [2]: 24 | MFI at 0.064 nM [2]: 74 | MFI at 0.32 nM [2]: 233 | MFI at 1.6 nM [2]: 553 | MFI at 8 nM [2]: 795 | MFI at 40 nM [2]: 967 | MFI at 200 nM [2]: 963 | IC50 (read off the curve) [3]: ~1 nM | MFI at 0.000128 nM [4]: 2 | MFI at 0.0128 nM [4]: 23 | MFI at 0.064 nM [4]: 69 | MFI at 0.32 nM [4]: 219 | MFI at 1.6 nM [4]: 421 | MFI at 8 nM [4]: 619 | MFI at 40 nM [4]: 626 | MFI at 200 nM [4]: 643

B2: 97A8D1 fully human CTLA-4 antibody (human IgG1, kappa) (antibody, V domains shown)
VH: QVQLVESGGGVVQPGRSLRLSCVASGFTFNNYGMNWVRQAPGKGLEWVAVIWYGGRNKFYADSVKGRFTISRDNSKNTLYLEMNSLRAEDTAVYYCARADWGGWFDPWGQGTLVTVSS
VL: EIVLTQSPGTLSLSPGERATLSCRASQSVSSTYLAWYQQKPGQAPRLLIHGAFSRATGIPDRFSGSGSGPDFTLTISRLEPEDFAVYYCQQYGTSPFTFGPGTKVDIK
notes: also called mAb49; mAb049
Kd [1]: 2.15 nM | koff [1]: 0.00087 s⁻¹ | kon [1]: 405000 M⁻¹ s⁻¹ | MFI at 0.000128 nM [2]: 3 | MFI at 0.0128 nM [2]: 22 | MFI at 0.064 nM [2]: 66 | MFI at 0.32 nM [2]: 196 | MFI at 1.6 nM [2]: 580 | MFI at 8 nM [2]: 919 | MFI at 40 nM [2]: 1020 | MFI at 200 nM [2]: 1020 | MFI at 0.000128 nM [4]: 2 | MFI at 0.0128 nM [4]: 23 | MFI at 0.064 nM [4]: 67 | MFI at 0.32 nM [4]: 225 | MFI at 1.6 nM [4]: 513 | MFI at 8 nM [4]: 754 | MFI at 40 nM [4]: 910 | MFI at 200 nM [4]: 831

B3: 31C12F3 fully human CTLA-4 antibody (human IgG1, kappa) (antibody, V domains shown)
VH: QVQLVESGGGVVQPGRSLILSCAASGFTFSSYGMHWVRQAPGKGLEWVAVVWYDGSNKYYADSVKGRFTISRDNSKNTLYLQMSSLRAEDTAVYYCARGGIVVPGLFEYWGQGSLVTVSS
VL: DIQMTQSPSSLSASVGDRVAITCRTSQSISNLLNWYQQKPGKAPELLIYAPSSFQSGVPSRFRGSGSGTDFTLTISSLQPEDFATYYCQQSYSTPFTFGPGTKVDIK
notes: also called mAb010
Kd [1]: 2.62 nM | koff [1]: 0.00118 s⁻¹ | kon [1]: 450000 M⁻¹ s⁻¹ | MFI at 0.000128 nM [2]: 3 | MFI at 0.0128 nM [2]: 34 | MFI at 0.064 nM [2]: 96 | MFI at 0.32 nM [2]: 260 | MFI at 1.6 nM [2]: 547 | MFI at 8 nM [2]: 756 | MFI at 40 nM [2]: 941 | MFI at 200 nM [2]: 998 | IC50 (read off the curve) [3]: ~1 nM | MFI at 0.000128 nM [4]: 2 | MFI at 0.0128 nM [4]: 34 | MFI at 0.064 nM [4]: 98 | MFI at 0.32 nM [4]: 261 | MFI at 1.6 nM [4]: 455 | MFI at 8 nM [4]: 654 | MFI at 40 nM [4]: 712 | MFI at 200 nM [4]: 668

B4: 92C8B6 fully human CTLA-4 antibody (human IgG1, kappa) (antibody, V domains shown)
VH: QVQLVESGGGVVQPGRSLRLSCAASGFTFSNFGMHWVRQAPGKGLEWVAVIWYDGSNKYYADSVKGRFTISRDNSKNTLFLQMNGLRAEDTAVYYCAKGGILMAGTLDYWGQGTLVTVSS
VL: B3 VL with A20T, T25A, I29V, N31T, L32Y, E45K, P51A, R63S, Y87F
notes: also called mAb42; mAb042
Kd [1]: 2.52 nM | koff [1]: 0.00187 s⁻¹ | kon [1]: 744000 M⁻¹ s⁻¹ | MFI at 0.000128 nM [2]: 3 | MFI at 0.0128 nM [2]: 23 | MFI at 0.064 nM [2]: 67 | MFI at 0.32 nM [2]: 203 | MFI at 1.6 nM [2]: 509 | MFI at 8 nM [2]: 827 | MFI at 40 nM [2]: 1040 | MFI at 200 nM [2]: 1060 | IC50 (read off the curve) [3]: ~2 nM | MFI at 0.000128 nM [4]: 2 | MFI at 0.0128 nM [4]: 22 | MFI at 0.064 nM [4]: 68 | MFI at 0.32 nM [4]: 208 | MFI at 1.6 nM [4]: 465 | MFI at 8 nM [4]: 722 | MFI at 40 nM [4]: 800 | MFI at 200 nM [4]: 711
